Measured values reported in US9395368B2, “Methods, agents and peptides for inducing an immune response to matrix metalloproteinase-2 expressing tumors” (New York University, priority 2010, dated 2016).

Key:
Assay type in all cases: cell-based, human
[1] = tested on: phosphorylated (Y701) STAT1; test: Intracellular staining of phosphorylated (Y701) STAT1 in DCs; settings: DCs preincubated 1 h (5 μg/mL) prior to poly(I:C), 3 h
Method: Immature DCs were incubated with MMP-2 (0.5 μg/mL or 5 μg/mL) and poly(I:C)-matured 1 h later. IL-12 levels were measured 16 h later. (A) Results are represented as a percentage of IL-12p70 levels, measured by CBA, produced when DCs were incubated with poly(I:C) only (n=11). (B) For intracellular staining of IL-12p35 and IL-12p40 chains, Brefeldin A was added 4 h after poly(I:C) activation and cells were stained after an additional 12 h incubation. Numbers in the upper right quadrants are the percentages of each population for a representative donor (n=3). (C,D) Immature DCs were incubated with MMP-2 for 1 h (5 μg/mL) before poly(I:C) maturation. Intracellular staining of phosphorylated (Y701) STAT1 (P-STAT1) was performed 3 h later. A representative donor (C) and results for all 3 donors (D) are shown. […] (E) Immature DCs were incubated with MMP-2 and poly(I:C)-matured 1 h later. IFNβ levels were measured by ELISA 16 h later. Results are represented as a percentage of IFNβ levels produced when DCs were incubated with poly(I:C) only (n=9). […] IFNAR1 protein expression was detected the next day by Western blot analysis using a rabbit monoclonal antibody. […]
Intracellular staining T-bet and GATA-3 expression was measured on resting T cells. […] Cytokine production by T cells was also assessed by intracellular staining T cells were stimulated with 2 μM overlapping peptides. […]

[2] = tested on: OX40L expression on DCs; test: OX40L expression on DCs by surface staining; settings: immature and poly(I:C)-matured DCs, n=9, 24 h
Method: Immature and poly(I:C)-matured DCs were incubated with active or HI MMP-2 (0.5 μg/mL or 5 μg/mL) for 24 h. MMP-2 enzymatic activity was controlled (FIG. 13C-D). OX40L expression was assessed by surface staining (A) Histogram plots are shown for representative donor HD1228. Isotype control is represented in tinted gray. (B) Mean fluorescent intensities are represented for all 9 donors tested. […] P values≦0.0167 (*) were considered statistically significant using a Bonferroni correction for 3 comparisons for each DC type. See also FIG. 12.
Dendritic cell preparation and activation. PBMCs were purified from healthy—(HD) or cord blood—(CB) donors and plated at 40×10^6 cells/10 mL/dish in complete IMDM with 5% PHS. Cells were allowed to adhere for 2 h at 37° C. Non-adherent cells were removed. The monocyte-enriched fraction was supplemented with 100 UI/mL rhGMCSF and 300 UI/mL rhIL-4 (R&D Systems) on days 0, 2 and 4. Immature DCs were harvested on day 5 and matured using poly(I:C) at 5 μg/mL/10^6 DCs (Amersham) Secretion of IL-12p70, TNFα, IL-1β, IL-6, IL-8 and IL-10 was assessed on both immature and mature DCs using the Human Inflammatory Cytokine Cytometric Bead Array (BD Pharmingen).

[3] = tested on: CD40, CD80, CD83, CD86, HLA-DR and CCR7 on DCs; test: Expression of maturation markers by DCs
Method: Antibodies. Allophycocyanin-conjugated antibody to CCR-7 (150503) was purchased from R&D Systems. Unconjugated (10 μg/mL for blocking experiments) or phycoerythrin-conjugated antibody to OX40L (11C3.1) was from Biolegend. Blocking antibody to IL-4 (8F12; 10 μg/mL) was from Acris. Antibodies to human Vβ chains covering 70% of the repertoire (10Test Beta Mark; Beckman Coulter) were used according to the manufacturer's instructions. Fluorescein isothiocyanate-conjugated antibody to IL-12p35/IL-12p70 (B-T21) and IFNAR1 (EP899Y) were from Abcam. Phycoerythrine-conjugated antibodies to IL-12p40/IL-12p70 (C8.6), IL-10 (B-T10), CD203c (FR3-16A11) were from Miltenyi Biotec. Blocking antibody to HLA-DQ (SPVL3; 20 μg/mL) was from NeoMarkers. […]
(§1) Dendritic cell preparation and activation. […] Immature DCs were harvested on day 5 and matured using poly(I:C) at 5 μg/mL/10^6 DCs (Amersham) Secretion of IL-12p70, TNFα, IL-1β, IL-6, IL-8 and IL-10 was assessed on both immature and mature DCs using the Human Inflammatory Cytokine Cytometric Bead Array (BD Pharmingen).
We next evaluated whether DCs could be involved in the polarization of MMP-2-specific CD4^+ T cells.

[4] = tested on: IL-12p70 production by DCs; test: IL-12p70 production by poly(I:C)-matured DCs (CBA); settings: DCs stimulated with poly(I:C)
Method: Immature DCs were incubated with MMP-2 (0.5 μg/mL or 5 μg/mL) and poly(I:C)-matured 1 h later. IL-12 levels were measured 16 h later. (A) Results are represented as a percentage of IL-12p70 levels, measured by CBA, produced when DCs were incubated with poly(I:C) only (n=11). (B) For intracellular staining of IL-12p35 and IL-12p40 chains, Brefeldin A was added 4 h after poly(I:C) activation and cells were stained after an additional 12 h incubation. Numbers in the upper right quadrants are the percentages of each population for a representative donor (n=3). (C,D) Immature DCs were incubated with MMP-2 for 1 h (5 μg/mL) before poly(I:C) maturation. Intracellular staining of phosphorylated (Y701) STAT1 (P-STAT1) was performed 3 h later. A representative donor (C) and results for all 3 donors (D) are shown. […] (E) Immature DCs were incubated with MMP-2 and poly(I:C)-matured 1 h later. IFNβ levels were measured by ELISA 16 h later. Results are represented as a percentage of IFNβ levels produced when DCs were incubated with poly(I:C) only (n=9). (F,G) 10^6DCs/lane were treated with 0.1 μg MMP-2 or controls. Poly(I:C) was added 1 h later. IFNAR1 protein expression was detected the next day by Western blot analysis using a rabbit monoclonal antibody. A representative donor (F) and results for all 7 donors (G) are shown. (H) The rhIFNAR1 (5 μg; ≈110 kD) was incubated overnight with 0.3 μg MMP-2 before performing Western blot analysis for IFNAR1. The second band (around 90 kD) and the third band (25 kD) very likely correspond to either a degraded form of the protein still recognized by the antibody or a contaminant present in the commercial protein preparation and non-specifically recognized by the antibody. MMP-2 enzymatic activity was controlled (FIG. 13C-D). […]
as §1

B1: inactivated MMP-2: MMP-2 enzyme inactivated either by heating or by addition of the MMP-2 inhibitor III; mode not stated at the place (protein, listed as Homo sapiens)
chain: MEALMARGALTGPLRALCLLGCLLSHAAAAPSPIIKFPGDVAPKTDKELAVQYLNTFYGCPKESCNLFVLKDTLKKMQKFFGLPQTGDLDQNTIETMRKPRCGNPDVANYNFFPRKPKWDKNQITYRIIGYTPDLDPETVDDAFARAFQVWSDVTPLRFSRIHDGEADIMINFGRWEHGDGYPFDGKDGLLAHAFAPGTGVGGDSHFDDDELWTLGEGQVVRVKYGNADGEYCKFPFLFNGKEYNSCTDTGRSDGFLWCSTTYNFEKDGKYGFCPHEALFTMGGNAEGQPCKFPFRFQGTSYDSCTTEGRTDGYRWCGTTEDYDRDKKYGFCPETAMSTVGGNSEGAPCVFPFTFLGNKYESCTSAGRSDGKMWCATTANYDDDRKWGFCPDQGYSLFLVAAHEFGHAMGLEHSQDPGALMAPIYTYTKNFRLSQDDIKGIQELYGASPDIDLGTGPTPTLGPVTPEICKQDIVFDGIAQIRGEIFFFKDRFIWRTVTPRDKPMGPLLVATFWPELPEKIDAVYEAPQEEKAVFFAGNEYWIYSASTLERGYPKPLTSLGLPPDVQRVDAAFNWSKNKKTYIFAGDKFWRYNEVKKKMDPGFPKLIADAWNAIPDNLDAVVDLQGGGHSYFFKGAYYLKLENQSLKSVKFGSIKSDWLGC
modifications: heat or inhibitor inactivated
Q: How did the STAT1 phosphorylation [1] turn out when B1 was run?
A: not

Q: And the “OX40L expression on DCs” value [2]?
A: significantly increased

Q: What about the “expression levels of maturation markers CD40, CD80, CD83, CD86, HLA-DR and CCR7” value [3] of the same molecule?
A: not significantly affected

Q: What about the “reduction in IL-12” value [4] of the same molecule?
A: not observed
